{"source": "paper PMC5477544", "about": "“Structural and mechanistic basis of differentiated inhibitors of the acute pancreatitis target kynurenine-3-monooxygenase” (Nature Communications, 2017)", "proteins": {"B1": {"name": "human KMO (Homo sapiens) (protein)", "chain": "MDSSVIQRKKVAVIGGGLVGSLQACFLAKRNFQIDVYEAREDTRVATFTRGRSINLALSHRGRQALKAVGLEDQIVSQGIPMRARMIHSLSGKKSAIPYGTKSQYILSVSRENLNKDLLTAAEKYPNVKMHFNHRLLKCNPEEGMITVLGSDKVPKDVTCDLIVGCDGAYSTVRSHLMKKPRFDYSQQYIPHGYMELTIPPKNGDYAMEPNYLHIWPRNTFMMIALPNMNKSFTCTLFMPFEEFEKLLTSNDVVDFFQKYFPDAIPLIGEKLLVQDFFLLPAQPMISVKCSSFHFKSHCVLLGDAAHAIVPFFGQGMNAGFEDCLVFDELMDKFSNDLSLCLPVFSRLRIPDDHAISDLSMYNYIEMRAHVNSSWFIFQKNMERFLHAIMPSTFIPLYTMVTFSRIRYHEAVQRWHWQKKVINKGLFFLGSLIAISSTYLLIHYMSPRSFLRLRRPWNWIAHFRNTTCFPAKAVDSLEQISNLISR"}}, "substrate": "Nc1ccccc1C(=O)CC(N)C(=O)O", "test": "purified protein, by the assay type", "conditions": "other: human KMO, 200 μM NADPH", "data": [{"protein": "B1", "values": [{"measurement": "Km", "result": 2, "unit": "µM"}, {"measurement": "kcat", "result": 0.24, "unit": "s⁻¹"}]}]}
